Data as given in patent US20140112931A1.

What was measured:
[1] = target: human HER3-Fc protein (R&D system) (human) (UniProt P21860); experiment: ELISA towards a 250 ng/ml coating solution of HER3 receptor, purified antibody
[2] = target: human HER3-Fc protein (R&D system) (human) (UniProt P21860); experiment: ELISA, HER3-Fc coated at 250 ng/ml
[3] = target: HER3 receptor (soluble analyte of the BIACORE analysis) (human) (UniProt P21860); experiment: SPR, BIACORE 3000, 25 °C; antibody captured by anti-mouse polyclonal on CM5, HER3 receptor injected; bivalent analyte model

B1: murine anti-HER3 monoclonal antibody 9F7-F11 (antibody, from another filing, V domains shown)
VH: EVKLVESGGGLVQPGGSLKLSCAASGFTFSSYTMSWVRQTPEKRLEWVAYISDGGGVTYYPDTIKGRFTISRDNAKNTLYLQMSSLKSEDTAMYYCARDRYGLFAYWGQGTLVTVSA
VL: DIVMTQSQKFMSTSVGDRVSITCKASQNVGIAVAWYQQKPGQSPKLLIYSASNRYTGVPDRFTGSGSGTDFTLTISNMQSEDLADYFCQQYSNYPYTFGGGTKLEIK
[1]
  Ab titer after purification (Ab concentration showing an absorbance of 1 by ELISA): 400 pg/mL
[2]
  EC50: < 1 ng/mL
[3]
  Kd: 4.4 nM
  koff: 0.00024 s⁻¹
  kon: 54000 M⁻¹ s⁻¹
